B1: Cell division protein ZapB (Escherichia coli (strain K12)), P0AF36 (parent)
chain: MTMSLEVFEKLEAKVQQAIDTITLLQMEIEELKEKNNSLSQEVQNAQHQREELERENNHLKEQQNGWQERLQALLGRMEEV
partner: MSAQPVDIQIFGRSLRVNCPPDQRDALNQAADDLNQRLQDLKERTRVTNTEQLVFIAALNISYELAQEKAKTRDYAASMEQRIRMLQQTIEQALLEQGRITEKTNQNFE

Variants of: B1
Conditions: with zapa_ecoli zapA

Effect of a mutation on the interaction, decreasing interaction strength:
MTMAAEVFEKLEAKVQQAIDTITLLQMEIEELKEKNNSLSQEVQNAQHQREELERENNHLKEQQNGWQERLQALLGRMEEV [S4A;L5A]
MTMSLEVFEAAEAKVQQAIDTITLLQMEIEELKEKNNSLSQEVQNAQHQREELERENNHLKEQQNGWQERLQALLGRMEEV [K10A;L11A]
MTMSLEVAAKLEAKVQQAIDTITLLQMEIEELKEKNNSLSQEVQNAQHQREELERENNHLKEQQNGWQERLQALLGRMEEV [F8A;E9A]

Reference: IntAct's records for PubMed 22056926
